# Assay results as given in publication PMC8402609 (Vaccines, 2021).
# What was measured:
# Experiment in all cases: SPR
# Conditions in all cases: both partners purified
# [1] = target: T1, 3D7 merozoite surface protein 2 (MSP2) (Plasmodium falciparum 3D7, UniProt P50498)
# T1 construct: also called 3D7 MSP2; 3D7-MSP2
# [2] = target: T2, 3D7-MSP2(207-222) (WT) 16-residue peptide (Plasmodium falciparum 3D7)
# T2 construct: source: synthetic peptide (Fmoc solid phase, in-house, reverse-phase purified)
# T2 chain: SQKECTDGNKENCGAA
# [3] = target: T3, 8-residue peptide 3D7-MSP2(215-222), minimal 4D11 epitope (Plasmodium falciparum 3D7)
# T3 construct: source: synthetic peptide
# T3 chain: NKENCGAA
# T1 sequence (P50498 21-246): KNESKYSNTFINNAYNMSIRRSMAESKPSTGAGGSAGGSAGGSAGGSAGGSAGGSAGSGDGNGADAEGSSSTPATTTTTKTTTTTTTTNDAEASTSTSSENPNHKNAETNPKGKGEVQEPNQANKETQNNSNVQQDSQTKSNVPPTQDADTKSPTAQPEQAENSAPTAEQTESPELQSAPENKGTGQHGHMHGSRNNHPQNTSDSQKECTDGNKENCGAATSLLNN
binder,measurement,setting,value
"mouse monoclonal antibody 4D11 IgG (antibody, V domains shown) VH: QVRLQQSGAELVKPGASVKLSCTASGFNIKDDYMHWVKQRPEQGLEWIGRIDPANGNTQYAPKFQDKATITADTSSNTAYLQLTSLTSEDTAVYYCARGGLLRWGQGTSVTVSS VL: not shown",binding result,[1],binds
same,Kd,[2],900 nM
same,Kd,[3],240 nM
